From paper PMC12599243, “Mechanistic insights into DNA binding by BD1 of the TAF1 tandem bromodomain module”

System: TAF1 tandem bromodomain N1460F (human)
Experiment: EMSA
Conditions: no peptide; EMSA: 50 mM HEPES pH 7.5, 100 mM NaCl, 35 nM DNA, 1 h at 4 C; 6% native PAGE, 0.5x TBE, 100 V on ice. HeLa mononucleosome pulldown (undefined DNA) not listed.

In the case of 147 bp Widom 601 DNA, the Kd is reported as 18.2 µM.
